Experiment [1] deals with T1, rhesus ERBB3 on transiently transfected HEK-293 cells (rhesus monkey (Macaca mulatta), UniProt P21860 20-1342 (human entry)).
T1 construct: also called rhesus ERBB3+ HEK-293 cells
T1 chain: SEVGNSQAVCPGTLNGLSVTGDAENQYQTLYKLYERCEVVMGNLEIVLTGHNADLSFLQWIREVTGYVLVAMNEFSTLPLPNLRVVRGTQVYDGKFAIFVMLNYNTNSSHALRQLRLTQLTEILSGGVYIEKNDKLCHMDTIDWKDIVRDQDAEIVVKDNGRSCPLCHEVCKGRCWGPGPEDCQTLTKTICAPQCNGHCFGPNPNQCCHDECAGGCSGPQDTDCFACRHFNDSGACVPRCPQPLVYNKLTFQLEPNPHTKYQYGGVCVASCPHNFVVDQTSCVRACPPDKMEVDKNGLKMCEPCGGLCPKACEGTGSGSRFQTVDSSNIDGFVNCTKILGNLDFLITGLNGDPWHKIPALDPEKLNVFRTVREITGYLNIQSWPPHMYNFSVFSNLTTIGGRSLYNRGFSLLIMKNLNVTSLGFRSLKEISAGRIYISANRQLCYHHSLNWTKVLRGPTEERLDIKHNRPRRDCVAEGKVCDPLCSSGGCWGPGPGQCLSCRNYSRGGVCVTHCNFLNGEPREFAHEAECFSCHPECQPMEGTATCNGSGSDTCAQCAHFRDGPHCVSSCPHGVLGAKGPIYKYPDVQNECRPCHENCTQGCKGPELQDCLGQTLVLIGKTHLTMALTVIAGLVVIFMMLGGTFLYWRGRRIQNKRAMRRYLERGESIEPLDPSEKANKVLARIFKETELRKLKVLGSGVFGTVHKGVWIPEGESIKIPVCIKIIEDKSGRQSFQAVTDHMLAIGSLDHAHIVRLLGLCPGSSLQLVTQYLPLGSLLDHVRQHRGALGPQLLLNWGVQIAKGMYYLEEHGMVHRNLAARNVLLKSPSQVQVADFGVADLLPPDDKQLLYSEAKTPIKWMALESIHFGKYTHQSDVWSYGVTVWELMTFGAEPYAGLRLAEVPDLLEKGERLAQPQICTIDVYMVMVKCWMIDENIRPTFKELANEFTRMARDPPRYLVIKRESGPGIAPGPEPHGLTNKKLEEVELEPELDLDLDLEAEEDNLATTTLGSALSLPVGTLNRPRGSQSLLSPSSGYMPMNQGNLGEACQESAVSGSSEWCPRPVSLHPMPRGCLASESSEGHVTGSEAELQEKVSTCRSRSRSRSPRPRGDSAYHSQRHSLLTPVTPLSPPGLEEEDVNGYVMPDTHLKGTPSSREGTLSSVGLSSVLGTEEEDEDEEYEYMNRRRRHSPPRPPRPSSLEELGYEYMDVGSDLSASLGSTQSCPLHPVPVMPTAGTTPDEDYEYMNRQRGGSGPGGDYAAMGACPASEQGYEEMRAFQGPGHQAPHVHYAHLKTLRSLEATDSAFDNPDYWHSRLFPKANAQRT
In words: flow cytometry, rhesus ERBB3-transfected HEK-293. An outline of the steps: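 Purified IgGs in IgG1null format were titrated threefold from 500 nM to 0.008 nM on HEK-293 cells transiently transfected with full-length human or rhesus ERBB3, with wild-type HEK-293 as comparison. Binding was detected with FITC anti-human IgG and read as mean fluorescence intensity of 10000 cells by flow cytometry.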

Experiment [2] addresses T1, rhesus ERBB3 on transiently transfected …. In words: flow cytometry, rhesus ERBB3-transfected HEK-293 cells, IgG1null titrated. How it is done:
Purified IgGs were tested in FACs for binding to human and rhesus monkey ERBB3 expressed on transiently transfected HEK-293 cells and HEK-293 wild-type cells. The IgG samples were titrated in three-fold serial dilutions starting at 500 nM to 0.008 nM. Binding of IgGs was detected with a mouse anti-human IgG conjugated to FITC. Results were analyzed by examining the Mean Fluorescence Intensity (MFI) of 10000 cells per sample in the BL-1 channel detector of a flow cytometer (Attune™ NxT Acoustic Focusing Cytometer, Invitrogen/ThermoFisher Scientific).
Antibodies to ERBB3 were analysed for concentration-dependent binding at the cell surface via flow cytometry. HEK-293 cells were transiently transfected with either human or rhesus ERBB3 full-length cDNAs. Anti-ERBB3 IgGs and an isotype control were then all tested in IgG1null format, over a concentration range of 500-0.008 nM for binding to human (FIG. 5A) and rhesus (FIG. 5B) transfected cells.
(A flow cytometer gives signals particle by particle.)

In experiment [3] the target is T2, rhesus monkey ERBB3 human Fc tagged recombinant protein (rhesus monkey (Macaca mulatta), UniProt P21860 20-643 (human entry), limits assumed).
T2 construct: also called rhesus ERBB3-Fc; rhERBB3
T2 chain: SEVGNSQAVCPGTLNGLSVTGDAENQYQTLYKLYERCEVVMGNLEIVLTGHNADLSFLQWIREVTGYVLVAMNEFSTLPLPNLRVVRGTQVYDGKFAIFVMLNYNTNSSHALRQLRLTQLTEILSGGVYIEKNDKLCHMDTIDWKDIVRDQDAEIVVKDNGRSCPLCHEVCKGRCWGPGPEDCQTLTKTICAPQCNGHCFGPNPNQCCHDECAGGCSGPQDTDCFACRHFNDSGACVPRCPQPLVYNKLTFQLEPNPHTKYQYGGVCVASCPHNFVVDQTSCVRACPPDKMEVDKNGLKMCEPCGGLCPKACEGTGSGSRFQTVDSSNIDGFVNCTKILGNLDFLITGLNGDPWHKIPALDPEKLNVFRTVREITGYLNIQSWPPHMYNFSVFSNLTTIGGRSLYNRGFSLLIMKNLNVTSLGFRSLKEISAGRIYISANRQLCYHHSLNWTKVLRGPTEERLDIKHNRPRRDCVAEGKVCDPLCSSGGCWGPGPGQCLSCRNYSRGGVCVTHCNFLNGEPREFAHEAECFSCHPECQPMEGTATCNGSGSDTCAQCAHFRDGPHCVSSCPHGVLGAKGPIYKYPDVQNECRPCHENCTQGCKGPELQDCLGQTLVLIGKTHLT
In words: direct binding ELISA on coated rhesus ERBB3-Fc, IgG1null titrated. The protocol:
Binding and cross-reactivity of the lead panel to the recombinant proteins was initially assessed by binding ELISA. The human ERBB3 human Fc tagged recombinant protein and the rhesus monkey ERBB3 human Fc tagged recombinant protein were coated to the surface of MaxiSorp™ flat-bottom 96 well plate at 1 μg/ml. The purified IgG samples were titrated in two fold serial dilutions starting from 500 nM to 0.008 nM and allowed to bind to the coated antigens. The Fabs were detected using mouse anti-c-myc antibody followed by donkey anti-mouse IgG conjugated to horseradish peroxidase. The IgGs were detected using the mouse anti-human IgG conjugated to horseradish peroxidase. Binding signals were visualized with 3,3′,5,5′-Tetramethylbenzidine Substrate Solution (TMB) and the absorbance measured at 450 nm.

Numbering of substitutions follows the chain as printed.

Here are results for 2 molecules from US20200339702A1 (ULTRAHUMAN THIRTEEN, published 2020).

B1: 09D12 IgG1null (antibody, V domains shown)
VH: QVQLVESGGGLVKPGGSLRLSCAASGFTFSDYGMSWIRQAPGKGLEWVSTISDGGSYTYYADSVKGRFTISRDNAKNSLYLQMNSLRAEDTAVYYCAREYGDYDGFDYWGQGTLVTVSS
VL: DIQMTQSPSSLSASVGDRVTITCRASQSISSYLNWYQQKPGKAPKLLIYAASSLDSGVPSRFSGSGSGTDFTLTISSLQPEDFATYYCLQYDSTPLTFGGGTKVEIK
notes: Human IgG1null and human Ckappa
One may read the EC50 (read off the curve) as the concentration that produces a half-maximal response. B1: in experiment [1], the “maximum MFI, fold over isotype control background” value is greater than 20 fold. The “EC50 (read off the curve)” value in experiment [2] is roughly 0.4 nM; in experiment [3], roughly 0.1 nM.

B2: TTP IgG1null (antibody, V domains shown)
VH: B1 VH with G54S, Y57T, T58I
VL: B1 VL with D55Q
notes: Designer clone; Human IgG1null and human Ckappa; also called Total Theoretically Possible clone
Regarding B2, in experiment [1], the “maximum MFI, fold over isotype control background” value was greater than 20 fold. In addition, the figures for the “EC50 (read off the curve)” value in experiment [2] and in experiment [3] were roughly 0.9 nM and roughly 0.2 nM, respectively.
